Experimental data taken from patent US20220009986A1 (AMBRX, published 2022).
Values joined by “and” are separate entries in the source; they are usually repeats but may differ in a detail not shown here. Identical values can stand only once. Like-named read-outs stand apart in the source and are kept apart here. Blank lines part the entries; values can stand above or below the binder they belong to.

Assays:
Test in all cases: cell-based or functional assay
[1] = biological target: T1, endogenous IL-10 receptors of MC/9 cells (mouse mast cell line) (mouse, UniProt Q61727 17-575)
T1 sequence (looked up): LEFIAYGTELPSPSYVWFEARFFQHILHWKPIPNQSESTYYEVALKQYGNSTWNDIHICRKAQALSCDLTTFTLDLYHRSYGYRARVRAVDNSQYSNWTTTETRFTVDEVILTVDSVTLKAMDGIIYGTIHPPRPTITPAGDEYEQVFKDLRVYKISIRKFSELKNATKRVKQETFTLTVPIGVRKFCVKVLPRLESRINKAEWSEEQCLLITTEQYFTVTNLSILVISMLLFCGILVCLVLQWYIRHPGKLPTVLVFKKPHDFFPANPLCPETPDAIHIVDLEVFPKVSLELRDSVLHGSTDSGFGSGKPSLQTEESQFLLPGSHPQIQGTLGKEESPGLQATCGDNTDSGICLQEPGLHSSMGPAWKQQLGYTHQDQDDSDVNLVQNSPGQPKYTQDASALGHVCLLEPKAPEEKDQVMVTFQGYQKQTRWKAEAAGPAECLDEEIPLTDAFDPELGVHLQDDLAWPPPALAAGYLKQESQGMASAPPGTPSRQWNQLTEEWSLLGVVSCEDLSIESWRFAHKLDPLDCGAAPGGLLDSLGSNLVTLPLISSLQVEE

[2] = biological target: T1, endogenous IL-10 receptors of MC/9 …; remark: listed apart in the source
[3] = biological target: T1, endogenous IL-10 receptors of MC/9 …; remark: listed apart in the source
[4] = biological target: T1, endogenous IL-10 receptors of MC/9 …; remark: listed apart in the source

EC50 (ng/ml), MC/9 proliferation assay [1]: 0.14 ng/mL
EC50 (ng/ml), MC/9 proliferation assay [2]: 0.303 ng/mL and 0.105 ng/mL
EC50 (ng/ml), MC/9 proliferation assay [3]: 1 ng/mL
EC50 (ng/ml), MC/9 proliferation assay [4]: 0.42 ng/mL
B1: IL-10 wild type (mature wild type human IL-10) (ligand)
chain: SPGQGTQSENSCTHFPGNLPNMLRDLRDAFSRVKTFFQMKDQLDNLLLKESLLEDFKGYLGCQALSEMIQFYLEEVMPQAENQDPDIKAHVNSLGENLKTLRLRLRRCHRFLPCENKSKAVEQVKNAFNKLQEKGIYKAMSEFDIFINYIEAYMTMKIRN

EC50 (ng/ml), MC/9 proliferation assay [1]: 4.76 ng/mL
B2: 5K PEG-hIL-10 wt (ligand)
chain: B1 chain
modifications: N-terminal PEGylation with 5K PEG

EC50 (ng/ml), MC/9 proliferation assay [1]: 21.8 ng/mL
B3: 10K PEG-hIL-10 wt (ligand)
chain: B1 chain
modifications: N-terminal PEGylation with 10K PEG
